Results published in US20230265170A1.

Experiments:
Assay in all cases: cell-based or functional assay
[1] = molecular target: SARS-CoV-2 Omicron BA.1 spike (S) protein (SARS-CoV-2)
[2] = molecular target: SARS-CoV-2 Omicron BA.2 spike (S) protein (SARS-CoV-2)
[3] = molecular target: SARS-CoV-2 Omicron BA.3 spike (S) protein (SARS-CoV-2)

Chain of AZD8895 (antibody) (VH): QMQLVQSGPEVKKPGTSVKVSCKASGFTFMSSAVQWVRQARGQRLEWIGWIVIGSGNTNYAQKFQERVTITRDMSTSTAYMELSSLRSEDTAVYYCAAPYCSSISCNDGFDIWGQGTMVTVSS
Chain of AZD8895 (antibody) (VL): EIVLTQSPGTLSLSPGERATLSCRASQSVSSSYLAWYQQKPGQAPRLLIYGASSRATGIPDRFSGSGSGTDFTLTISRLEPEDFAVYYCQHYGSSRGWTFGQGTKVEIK

Substance | IC50, pseudoviral neutralization [1] | IC50, pseudoviral neutralization [2] | IC50, pseudoviral neutralization [3]
ADG10 (antibody) | > 10 µg/mL | > 10 µg/mL | > 10 µg/mL
ADG20 (antibody) | 0.348 µg/mL | > 10 µg/mL | > 10 µg/mL
ADG30 (antibody) | > 10 µg/mL | > 10 µg/mL | > 10 µg/mL
AZD1061 (antibody) | 0.308 µg/mL | 0.008 µg/mL | 0.019 µg/mL
AZD8895 (antibody) | 0.246 µg/mL | 1.33 µg/mL | > 10 µg/mL
Ly-CoV16 (antibody) | > 10 µg/mL | > 10 µg/mL | > 10 µg/mL
Ly-CoV555 (antibody) | > 10 µg/mL | > 10 µg/mL | > 10 µg/mL
Ly-CoV1404 (antibody) | 0.002 µg/mL | 0.001 µg/mL | 0.002 µg/mL
REGN10933 (antibody) | > 10 µg/mL | > 10 µg/mL | > 10 µg/mL
REGN10987 (antibody) | > 10 µg/mL | 0.516 µg/mL | > 10 µg/mL
S309 (antibody) | 0.313 µg/mL | 0.638 µg/mL | 0.311 µg/mL
